Assay results: patent US20040091945A1, “Peptides and methods of screening immunogenic peptide vaccines against Alzheimer's Disease” (priority 2002, published 2004)

molecular target: recombinant HLA A0201 (Homo sapiens, UniProt P04439, D140Y/D185E/D98H/E176V/E277Q/G131W/G231S/I119V/I121R/I166T/I218V/L300P/L318F/N151K/N90K/P208A/P217A/Q86G/Q94H/R138H/R169H/T345S); assay: Competition with radiolabelled control peptide for binding to recombinant HLA A0201; details: initial screening, 1 uM peptide, 1 nM rHLA A0201 (FIG. 1)
Description: FIG. 1: FIG. 1: Binding of radiolabelled peptide to 1 nM rHLA A0201 in absence or presence of 1 uM Abeta 1-42 or homologue-derived peptides (numbered 1-10; see Table 4). Binding is shown relative to measured binding without competition (maximal binding). The control peptide (ctrl): […] (SEQ ID NO. 1).
The binding (or lack thereof) of HLA-A2.01 epitopes derived from the Abeta homologue LV/EE (modifications at positions 17 and 18) was tested in an in vitro system to validate the computer predictions. Comparisons were made to predicted epitopes from the wild-type human Abeta 1-42 sequence. Recombinant HLA A0201 heavy chains were produced in E. coli and purified from inclusion bodies according to a standard procedure described elsewhere (Ostergaard Pederson, L. et al. 2001). Briefly, HLA 0201 heavy chains (1 nM were incubated for 4 hr. at room temperature with 1 nM iodinated control binding peptide ([…]-SEQ ID No. 1; this peptide has a score of 607.884 when submitted to the ILA Peptide Binding Prediction program at BIMAS), 1000 nM human β2M and graded doses (indicated in figures) of unlabelled peptide of interest (derived from Abeta or its homologue). Receptor bound and free peptide were separated by G25 spun column chromatography (Buus, S. et al. 1995) and counted in a gamma counter (Cobra). The peptides used in this study are listed in Table 4: […]

Ability to compete away the binding of the control radiolabeled peptide to recombinant HLA-A201 molecules, did not bind well:
AEFRHDSGY
FRHDSGYEV
HHQKEEFFA
KEEFFAEDV
YEVHHQKEE
YEVHHQKLV

Ability to compete away the binding of the control radiolabeled peptide to recombinant HLA-A201 molecules, able to compete:
GLMVGGVVI
IIGLMVGGV
KLVFFAEDV
LMVGGVVIA

molecular target: T1, recombinant HLA A0201 (heavy chain produced in E. coli, with human beta2-microglobulin) (human); assay: competition with iodinated [..] for recombinant HLA A0201; 1 uM unlabelled peptide; details: not given
T1 construct: also called rHLA A0201; HLA-A2.01

Binding result, binds:
GLMVGGVVI [Peptide 1, GLMVGGVVI, derived from Abeta 1-42]
IIGLMVGGV [Peptide 6, IIGLMVGGV, derived from Abeta 1-42]
LMVGGVVIA (6) [Peptide 10, LMVGGVVIA, derived from Abeta 1-42]
KLVFFAEDV [Peptide 2, KLVFFAEDV, derived from Abeta 1-42]
